Results: US20110045003A1 (SYNOVEX, published 2011)

T1: BSA coupled 37-mer Cad-11 peptide encompassing the Cad-11 immunogen (UniProt P55287 54-90, limits assumed, linked to BSA)
T1 construct: domain: 37-mer peptide encompassing the Cad-11 immunogen; also called Cad-11 antigen; Cad-11 peptide immunogen
T1 peptide (looked up): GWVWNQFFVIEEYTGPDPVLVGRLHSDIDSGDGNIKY

T2: recombinant Cad-11 EC1 human IgG1 fusion protein (R&D Systems Cat. No. 1790-CA-050) (human, UniProt P55287 54-617, limits assumed)
T2 construct: Bought protein; the catalogue product may hold more of the extracellular region; also called recombinant human Cad-11 EC1; recombinant human Cad-11 fusion protein; not shown: human IgG1 part of the bought fusion protein
T2 sequence: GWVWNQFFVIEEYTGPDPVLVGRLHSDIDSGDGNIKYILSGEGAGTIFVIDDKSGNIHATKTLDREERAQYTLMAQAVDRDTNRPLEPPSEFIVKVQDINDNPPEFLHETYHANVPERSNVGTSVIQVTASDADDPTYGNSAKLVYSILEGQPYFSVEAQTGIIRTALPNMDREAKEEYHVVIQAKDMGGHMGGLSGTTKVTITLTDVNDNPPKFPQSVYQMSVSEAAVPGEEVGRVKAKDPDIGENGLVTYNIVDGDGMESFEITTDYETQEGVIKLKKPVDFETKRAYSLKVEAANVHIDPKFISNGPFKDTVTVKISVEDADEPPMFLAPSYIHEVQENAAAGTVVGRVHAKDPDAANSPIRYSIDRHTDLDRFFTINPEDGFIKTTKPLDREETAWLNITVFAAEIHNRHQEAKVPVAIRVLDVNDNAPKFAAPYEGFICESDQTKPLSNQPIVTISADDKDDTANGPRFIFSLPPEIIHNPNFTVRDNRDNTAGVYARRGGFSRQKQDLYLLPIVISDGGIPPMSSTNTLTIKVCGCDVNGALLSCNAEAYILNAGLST


Legend:
[1] = target: T1, BSA coupled 37-mer Cad-11 peptide …; assay: ELISA, BSA-coupled 37-mer cadherin peptide coated at 500 ng/ml, antibody titrated, A450
Method: Reactibind plates (ThermoScientific) were coated with 500 ng/ml of the BSA coupled cadherin 37-mer peptide (NE peptide) corresponding to Cadherins-7, -8, -9, -11, -18, -20, and -24 in 0.05% Tween (EMD, product code 9480) in PBS (pH 7.2) (Gibco(Invitrogen), #20012) at 100 μl volume/well for overnight at 4° C. The peptide containing solution was removed from the well and the plate blocked with a 2% bovine serum albumin (BSA) in PBS, 200 μl volume/well, for 2 h at 22° C. The plate was then washed twice with 200 μl/well of PBS-Tween 0.05% at 22° C. and blotted dry. A dilution series from 5 μg/ml to 8 ng/ml in a volume of 100 μl/well of each the humanized anti-Cad-11 antibodies were incubated in the peptide coated wells and incubated at 22° C. for 1 hr. Antibody solution was removed from the wells and the plate washed twice with 200 μl/well of 0.05% Tween-PBS at 22° C. and blotted dry. The goat-anti mouse IgG (Pierce # 31432) was added to each well to plate at a 1:1000 dilution, 100 μl/well and incubate at 22° C. for 30 min. The secondary antibody solution was removed and the plate washed twice with 200 μl/well of 0.05% Tween-PBS at 22° C. and blotted dry. The reaction was developed by adding 100 μl/well tetramethylbenzidine (TMB) reagent IgG (Pierce # 34022, 1 step Turbo TMB-ELISA) to plate and developed at 22° C. for 5 min.

[2] = target: T2, recombinant Cad-11 EC1 human IgG1 …; assay: competition ELISA on coated recombinant human Cad-11 EC1 fusion; competitor biotinylated SYN0012/H1M1 at 0.1 µg/ml
Method: (§1) The binding of the purified humanized composite variant antibodies (SDP011 to SDP151) to a recombinant Cad-11 EC1 human IgG1 fusion protein was assessed in a competition binding ELISA. A dilution series from 5 μg/ml to 0.0022 μg/ml of the humanized or control (SYN0012/H1M1) antibodies was premixed with a constant concentration of biotinylated murine anti-Cad-11 antibody, SYN0012/H1M1 (0.1 μg/ml, final concentration), before incubating for 1 hour at room temperature on a Nunc Immuno MaxiSorp 96 well flat bottom microtitre plate (Fisher Cat. No. DIS-971-030J) pre-coated with 0.25 μg/ml recombinant human Cad-11 EC1 (R&D Systems Cat. No. 1790-CA-050) diluted in PBS. The binding of the biotinylated mAb was detected with streptavidin-HRP (Sigma Cat. No. 55512) and tetramethylbenzidine (TMB) substrate (Invitrogen Cat. No. 00-2023).
The relative IC50 was calculated by dividing the value for the test antibody by that of SYN0012. Antibody expression levels given are for static cultures in T flasks. PI are calculated.

[3] = target: T2, recombinant Cad-11 EC1 human IgG1 …; assay: competition ELISA on coated recombinant human Cad-11 EC1 fusion protein; competitor biotinylated SYN0012 at 0.1 µg/ml, streptavidin-HRP, OD450
Method: as §1

[4] = target: T2, recombinant Cad-11 EC1 human IgG1 …; assay: competition ELISA: antibody dilution series premixed with biotinylated SYN0012/H1M1 (0.1 µg/ml) on plate-coated recombinant human Cad-11 EC1 fusion protein; OD450 = bound biotinylated SYN0012
Method: as §1

Row | Binder | EC50 (read off the curve) [1] [mg/L] | relative IC50 (IC50 of the test antibody divided by that of SYN0012) [2] | IC50 (read off the curve) [3] [mg/L] | IC50 (read off the curve) [4] [mg/L]
1 | humanized anti-Cad-11 antibody SDP081 (Vκ2/VH3) (antibody, IgG4, V domains shown, humanized IgG4 (S241P), kappa) VH: EVQLVQSGAEVKKPGASVKISCKASGYSFTGYFMNWVRQAPGQGLEWIGRINPYTGDTFYNQKFKGRATLTVDKSTSTAYMELSSLRSEDTAVYYCGRLGSRYWYFDVWGQGTTVTVSS VL: DVLMTQTPLSSPVTLGQPASISCRSSQSIIHSNGNTYLEWYLQKPGQSPQLLIYKVSNRFSGVPDRFSGSGSGTDFTLKISRVEAEDVGVYYCFQGSHVPWTFGQGTKLEIK | ~0.08 | 0.42 ratio (column head prints µg/mL) | – | –
2 | humanized anti-Cad-11 antibody SDP041 (Vκ1/VH4) (antibody, IgG4, V domains shown, humanized IgG4 (S241P), kappa) VH: EVQLVQSGAEVKKPGASVKVSCKASGYSFTGYFMNWVRQAPGQGLEWIGRINPYTGDTFYNQKFKGRATITVDKSTSTAYMELSSLRSEDTAVYYCGRLGSRYWYFDVWGQGTTVTVSS VL: DVLMTQTPLSSPVTLGQPASISCRSSQSIIHSNGNTYLEWYLQKPGQSPQLLIYKVSNRFSGVPDRFTGSGSGTDFTLKISRVEAEDVGVYYCFQGSHVPWTFGQGTKLEIK | ~0.06 | 0.65 ratio (column head prints µg/mL) | ~0.1 | –
3 | humanized anti-Cad-11 antibody SDP131 (Vκ3/VH3) (antibody, IgG4, V domains shown, humanized IgG4 (S241P), kappa) VH: EVQLVQSGAEVKKPGASVKISCKASGYSFTGYFMNWVRQAPGQGLEWIGRINPYTGDTFYNQKFKGRATLTVDKSTSTAYMELSSLRSEDTAVYYCGRLGSRYWYFDVWGQGTTVTVSS VL: DVVMTQTPLSSPVTLGQPASISCRSSQSIIHSNGNTYLEWYLQKPGQSPQLLIYKVSNRFSGVPDRFSGSGSGTDFTLKISRVEAEDVGVYYCFQGSHVPWTFGQGTKLEIK | ~0.07 | 0.55 ratio (column head prints µg/mL) | – | ~0.2
4 | humanized anti-Cad-11 antibody SDP021 (Vκ1/VH2) (antibody, IgG4, V domains shown, humanized IgG4 (S241P), kappa) VH: EVQLVQSGAEVKKPGASVKISCKASGYSFTGYFMNWVKQAPGQGLEWIGRINPYTGDTFYNQKFKGRATLTVDKSTSTAYMELSSLRSEDTAVYYCGRLGSRYWYFDVWGQGTTVTVSS VL: DVLMTQTPLSSPVTLGQPASISCRSSQSIIHSNGNTYLEWYLQKPGQSPQLLIYKVSNRFSGVPDRFTGSGSGTDFTLKISRVEAEDVGVYYCFQGSHVPWTFGQGTKLEIK | ~0.06 | 0.67 ratio (column head prints µg/mL) | ~0.1 | –
5 | humanized anti-Cad-11 antibody SDP111 (Vκ3/VH1) (antibody, IgG4, V domains shown, humanized IgG4 (S241P), kappa) VH: EVQLVQSGPELKKPGASVKISCKASGYSFTGYFMNWVKQAHGQGLEWIGRINPYTGDTFYNQKFKGRATLTVDKSSSTAYMELVSLSSEDSAVYYCGRLGSRYWYFDVWGQGTTVTVSS VL: DVVMTQTPLSSPVTLGQPASISCRSSQSIIHSNGNTYLEWYLQKPGQSPQLLIYKVSNRFSGVPDRFSGSGSGTDFTLKISRVEAEDVGVYYCFQGSHVPWTFGQGTKLEIK | ~0.07 | 0.68 ratio (column head prints µg/mL) | – | ~0.2
6 | humanized anti-Cad-11 antibody SDP091 (Vκ2/VH4) (antibody, IgG4, V domains shown, humanized IgG4 (S241P), kappa) VH: EVQLVQSGAEVKKPGASVKVSCKASGYSFTGYFMNWVRQAPGQGLEWIGRINPYTGDTFYNQKFKGRATITVDKSTSTAYMELSSLRSEDTAVYYCGRLGSRYWYFDVWGQGTTVTVSS VL: DVLMTQTPLSSPVTLGQPASISCRSSQSIIHSNGNTYLEWYLQKPGQSPQLLIYKVSNRFSGVPDRFSGSGSGTDFTLKISRVEAEDVGVYYCFQGSHVPWTFGQGTKLEIK | ~0.07 | 0.57 ratio (column head prints µg/mL) | – | –
7 | humanized anti-Cad-11 antibody SDP121 (Vκ3/VH2) (antibody, IgG4, V domains shown, humanized IgG4 (S241P), kappa) VH: EVQLVQSGAEVKKPGASVKISCKASGYSFTGYFMNWVKQAPGQGLEWIGRINPYTGDTFYNQKFKGRATLTVDKSTSTAYMELSSLRSEDTAVYYCGRLGSRYWYFDVWGQGTTVTVSS VL: DVVMTQTPLSSPVTLGQPASISCRSSQSIIHSNGNTYLEWYLQKPGQSPQLLIYKVSNRFSGVPDRFSGSGSGTDFTLKISRVEAEDVGVYYCFQGSHVPWTFGQGTKLEIK | ~0.06 | 0.52 ratio (column head prints µg/mL) | – | ~0.2
8 | humanized anti-Cad-11 antibody SDP141 (Vκ3/VH4) (antibody, IgG4, V domains shown, humanized IgG4 (S241P), kappa) VH: EVQLVQSGAEVKKPGASVKVSCKASGYSFTGYFMNWVRQAPGQGLEWIGRINPYTGDTFYNQKFKGRATITVDKSTSTAYMELSSLRSEDTAVYYCGRLGSRYWYFDVWGQGTTVTVSS VL: DVVMTQTPLSSPVTLGQPASISCRSSQSIIHSNGNTYLEWYLQKPGQSPQLLIYKVSNRFSGVPDRFSGSGSGTDFTLKISRVEAEDVGVYYCFQGSHVPWTFGQGTKLEIK | ~0.06 | 0.61 ratio (column head prints µg/mL) | – | ~0.2
9 | humanized anti-Cad-11 antibody SDP151 (Vκ3/VH5) (antibody, IgG4, V domains shown, humanized IgG4 (S241P), kappa) VH: EVQLVQSGAEVKKPGASVKVSCKASGYSFTGYFMNWVRQAPGQGLEWIGRINPYTGDTFYNQKFKGRVTITVDKSTSTAYMELSSLRSEDTAVYYCGRLGSRYWYFDVWGQGTTVTVSS VL: DVVMTQTPLSSPVTLGQPASISCRSSQSIIHSNGNTYLEWYLQKPGQSPQLLIYKVSNRFSGVPDRFSGSGSGTDFTLKISRVEAEDVGVYYCFQGSHVPWTFGQGTKLEIK | ~0.06 | 0.72 ratio (column head prints µg/mL) | – | ~0.2
10 | humanized anti-Cad-11 antibody SDP101 (Vκ2/VH5) (antibody, IgG4, V domains shown, humanized IgG4 (S241P), kappa) VH: EVQLVQSGAEVKKPGASVKVSCKASGYSFTGYFMNWVRQAPGQGLEWIGRINPYTGDTFYNQKFKGRVTITVDKSTSTAYMELSSLRSEDTAVYYCGRLGSRYWYFDVWGQGTTVTVSS VL: DVLMTQTPLSSPVTLGQPASISCRSSQSIIHSNGNTYLEWYLQKPGQSPQLLIYKVSNRFSGVPDRFSGSGSGTDFTLKISRVEAEDVGVYYCFQGSHVPWTFGQGTKLEIK | ~0.07 | 0.53 ratio (column head prints µg/mL) | – | –
11 | humanized anti-Cad-11 antibody SDP011 (Vκ1/VH1) (antibody, IgG4, V domains shown, humanized IgG4 (S241P), kappa) VH: EVQLVQSGPELKKPGASVKISCKASGYSFTGYFMNWVKQAHGQGLEWIGRINPYTGDTFYNQKFKGRATLTVDKSSSTAYMELVSLSSEDSAVYYCGRLGSRYWYFDVWGQGTTVTVSS VL: DVLMTQTPLSSPVTLGQPASISCRSSQSIIHSNGNTYLEWYLQKPGQSPQLLIYKVSNRFSGVPDRFTGSGSGTDFTLKISRVEAEDVGVYYCFQGSHVPWTFGQGTKLEIK | ~0.07 | 0.91 ratio (column head prints µg/mL) | ~0.2 | –
